# Results as given in patent publication US7847064B2, “Methods and compositions for regulating gene expression in plant cells” (Donald Danforth Plant Science Center, priority 2004, dated 2010).
# B1: RF2a-ΔP: RF2a mutant, proline-rich domain removed, SEQ ID NO:68 (protein)
# chain: MGHRRAHSEILSLPEDLDLCAAGGGDGPSLSDENDEELFSMFLDVEKLNSTCGASSEAEAESSSAAAHGARPKHQHSLSMDESMSIAEELVGASPGTEGMSSAEAKKAVSAVKLAELALVDPKRAKRIWANRQSAARSKERKMRYIAELERKVQTLQTEATTLSAQLALLQRDTSGLTTENSELKLRLQTMEQQVHLQDALNDTLKSEVQRLKVATGQMANGGGMMMNFGGMPHQFGGNQQMFQNNQAMQSMLAAHQLQQLQLHPQAQQQQVLHPQHQQQQPLHPLQAQQLQQAARDLKMKSPMGGQSQWGDGKSGSSGN
# modifications: This sequence was artificially derived and/or created by the inventors.
# B2: RF2a-ΔQ: RF2a mutant, glutamine-rich domain removed, SEQ ID NO:69 (protein)
# chain: MNREKSPIPGDGGDGLPPQATRRAGPPAAAAAAEYDISRMPDFPTRNPGHRRAHSEILSLPEDLDLCAAGGGDGPSLSDENDEELFSMFLDVEKLNSTCGASSEAEAESSSAAAHGARPKHQHSLSMDESMSIKAEELVGASPGTEGMSSAEAKKAVSAVKLAELALVDPKRAKRIWANRQSAARSKERKMRYIAELERKVQTLQTEATTLSAQLALLQRDTSGLTTENSELKLRLQTMEQQVHLQDALNDTLKSEVQRLKVATGQMANGGGMMMNFGGMPHQ
# modifications: This sequence was artificially derived and/or created by the inventors.
# Assays:
# [1] = test system: non-transgenic BY-2 protoplasts; test: GUS activity of Box II/CaMV 35S chimeric promoters in non-transgenic BY-2 protoplasts; assay type: cell-based, tobacco; conditions: for increase in expression level above the construct without Box II: versus p-48CaMV and p-90CaMV respectively, normalized against GFP; for stimulation of gene expression versus the construct without Box II: Box II at 7 nucleotides from the TATA box plus multiples of 0.5 turns of DNA helix
# Excerpt: Specifically, the Box II element was fused to the 5′ end of the chimeric promoters with a space of 7 nucleotides from the TATA box plus 1, 1.5, 3.0, 3.5, 5.0 and 5.5 “turns of DNA helix” (one turn=10.4 base pairs). The chimeric promoters were then inserted into a cassette with the uidA coding sequencing and Nos terminator.
# Construction of Plasmids Comprising the Box II Element and Different Lengths of the CaMV 35S Promoter—To construct Box II and CaMV 35S chimeric promoters, the Box II element was introduced into CaMV 35S promoter sequences of different lengths through PCR reactions using Pfu DNA polymerase (Stratagen Systems, Kirkland, Wis.). Forward primers for the PCR reactions were designed to have a HindIII restriction site, followed by the Box II sequence, which was followed by part of the 5′ CaMV promoter at desired positions (see FIG. 12 and Table 2 for specific primer sequences). The GUS 3′ primer (SEQ ID NO:36) was used as reverse primer for all reactions.
# The p35S:GUS plasmid was used as template in the foregoing reactions. In the p35S:GUS plasmid, a NcoI restriction site was located between the CaMV 35S promoter and the GUS coding sequence. Thus, a NcoI site was present in all PCR products. The PCR products were restricted with HindIII/NcoI and cloned into a pE:GUS vector to replace the E promoter through the same set of restriction sites. The constructed plasmids containing the chimeric promoters labeled 1 through 6 in Table 2 were named p-1.0hBoxII−48CaMV:GUS, p-1.5hBoxII−53CaMV:GUS, p-3.0hBoxII−69CaMV:GUS, p-3.5hBoxII−74CaMV, p-5.0hBoxII−90CaMV:GUS, and p-5.5hBoxII−95CaMV:GUS, respectively. The controls for this set of plasmids were generated using primer sets 1.5h-53CaMV-c (SEQ ID NO:43)/GUS3′; −3.5h-74CaMV-c (SEQ ID NO:44)/GUS3′ and −5.5h-95CaMV-c (SEQ ID NO:45)/GUS3′, which products were cloned into pE:GUS with HindIII/NcoI to replace the E promoter. The derived plasmids/constructs were named p-53CaMV:GUS, p-74CaMV:GUS and p-95CaMV:GUS, respectively.
# The foregoing constructs were then transfected into non-transgenic BY-2 protoplasts, and the resulting GUS activity determined.
# [2] = test system: Box IIm1 element; test: Electrophoretic mobility shift assay; assay type: binding; conditions: 100 ng purified protein, 32P-labeled Box IIm1 DNA probe
# Method: The purified mutant proteins were then analyzed by SDS-PAGE to confirm that each protein was its expected size (FIG. 16(B)). To confirm that each of the mutant proteins bind to the DNA target, i.e., the Box II element and/or its operational derivatives, gel mobility shift assays were carried out with the purified recombinant proteins (FIG. 16(C)). The electrophoretic mobility shift assays were carried out essentially as described in Yin and Beachy (1995). 100 ng of proteins purified from the transformed E. coli were incubated with ^32P-labeled Box IIm1 DNA probe followed by electrophoresis in a 5% acrylamide gel (Yin et al., 1997) (FIG. 16(C)).
# [3] = test system: pBII-48Ca::GUS; test: Transactivation of pBII-48Ca::GUS by RF2a and RF2a mutants in BY-2 protoplasts; assay type: cell-based, tobacco; conditions: co-transfected with pBII-48Ca::GUS, 24 hours after electroporation, normalized with GFP
# Method: The relative activity of RF2a and the RF2a mutants (described in Example 8) was then measured. First, a chimeric promoter was developed with a single copy of the Box II element fused to the 5′ end of a minimal CaMV 35S promoter comprising nucleotides −48 to +8 (SEQ ID NO:66). The chimeric promoter was ligated to the uidA coding sequence to create the reporter pBII-48Ca::GUS.
# To analyze the function of the several domains of RF2a, effectors were created by inserting coding sequences of RF2a or the mutants of RF2a (described in Example 8) downstream of the enhanced CaMV 35S promoter in the pMON999 vector (a gift from Monsanto Company, St. Louis, Mo.). The resultant constructs, p35S::RF2a, p35S::RF2a-ΔP, p35S::RF2a-ΔQ, p35S::RF2a-ΔPΔA, p35S::RF2a-ΔPΔQ and p35S::RF2a-3Δ, were co-transfected into BY-2 protoplasts with pBII-48Ca::GUS (FIG. 17(A)). Plasmid pCat-GFP, in which the GFP gene was driven by CaMV 35S promoter, was co-introduced to serve as an internal control. The following describes, in greater detail, the construction of these vectors and the methods employed in transfecting the same into BY-2 protoplasts.
# Plasmids for protoplast transfection—The coding sequences for mutants of RF2a were released from pET28a-derived plasmids and cloned into the plant expression vector pMON999 (a gift from Monsanto Company, St. Louis, Mo.) to place each gene downstream of an enhanced CaMV 35S promoter, followed by a nopaline synthase terminator sequence. The resulting effector constructs were named p35S::RF2a, p35S::RF2a-ΔP, p35S::RF2a-ΔQ, p35S::RF2a-ΔPΔA, p35S::RF2a-ΔPΔQ and p35S::RF2a-3Δ. The reporter gene construct, pBII-48Ca::GUS, was built using PCR to introduce the Box II element into a minimal CaMV 35S promoter comprising nucleotides −48 to +8 with primers BII-48Ca 5′ (SEQ ID NO:53) (which contained the Box II element) and GUS 3′ (SEQ ID NO:36) using a p35S:GUS plasmid as template. The PCR product was restricted with HindIII and NcoI, and the resulting fragment was inserted into p35S::GUS to replace the original 35S promoter.
# Transfection of tobacco BY-2 protoplasts—The protoplasts were isolated from tobacco cell line BY-2 as described by Watanabe et al. (1987). Approximately one million protoplasts were transfected by electroporation with 20 μg of effector construct DNA, 15 μg of herring sperm DNA, 2.5 μg of reporter gene construct DNA, and 15 μg of pCat-GFP DNA. In samples with reporter gene alone, the total amount of DNA was adjusted by adding 20 μg of herring sperm carrier DNA. The electroporation parameters used were 300 V and 250 microfarads with the Bio-Rad electroporation system (Bio-Rad Laboratories, Hercules, Calif.). Protoplast samples were cultured in Murashige and Skoog medium with 0.4 M mannitol, pH 5.8, at 28° C. The protoplasts were collected 24 hours after electroporation.
# [4] = test system: Nicotiana tabacum cv. Xanthi NN; test: Phenotype of transgenic tobacco plants overexpressing RF2a or RF2a mutants; assay type: in vivo; conditions: CaMV 35S promoter driven, T1 generation, greenhouse
# Excerpt: (Yin et al., 1997; Petruccelli et al., 2001). […] Fifteen or more independent transgenic tobacco lines were developed with the constructs described below through Agrobacterium-mediated transformation.
# Plasmids for Agrobacterium-mediated transformation—The fusion genes described above relating to the plant expression constructs comprising RF2a deletion mutants were released from pMON999-derived plasmids using NotI (blunted) and cloned into the binary vector pGA-E::GUS (Petruccelli et al., 2001) using the blunt HindIII site (downstream of a CaMV 35S promoter sequence). The final plasmids were named pGA-E::GUS/P-35S::ΔP, pGA-E::GUS/P-35S::ΔQ, pGA-E::GUS/P-35S::ΔPΔA and pGA-E::GUS/P-35S::ΔPΔQ. A plasmid encoding full-length RF2a, p35S::RF2a, was also constructed using the methods described herein.
# Tobacco transformation—the plasmids described above were introduced into Agrobacterium tumefaciens strain LBA4404 and used for tobacco transformation. Leaf discs from Nicotiana tabacum cv. Xanthi NN were transformed with the various plasmids following the protocol of Horsch et al. (1988). At least 15 independent transgenic lines were produced with each gene construct. Transgenic plants were self-fertilized, and T1 seeds were collected. The T1 seeds were germinated on Murashige and Skoog medium (Murashige and Skoog, 1962) with kanamycin (100 mg/L) selection, and Kan^r seedlings were grown in a greenhouse for observation.
# The phenotype caused by 35S::RF2a-ΔPΔA was similar to, but less severe than, the phenotype caused by 35S::RF2a-3Δ. […] (FIG. 19(C)).
molecule,measurement,setting,value
"p5.0hBoxII−90CaMV: Box II fused to CaMV 35S promoter, 7 nucleotides from TATA box plus 5.0 turns (DNA TGATCAAAGCTTCCAGTGTGCCCCTGGATCTCCACTGACGTAAG; listed as DNA, chemistry not given here)",increase in expression level above the construct without Box II,[1],4.7 fold
"p-3.5hBox II−74CaMV: Box II fused to CaMV 35S promoter, 7 nucleotides from TATA box plus 3.5 turns (DNA TGATCAAAGCTTCCAGTGTGCCCCTGGGGGATGACGCACAATCC; listed as DNA, chemistry not given here)",stimulation of gene expression versus the construct without Box II,[1],much less or no stimulation of gene expression
"p1.0hBoxII−48CaMV: Box II fused to CaMV 35S promoter, 7 nucleotides from TATA box plus 1 turn of DNA helix (DNA TGATCAAAGCTTCCAGTGTGCCCCTGGTCGCAAGACCCTTCCTC; listed as DNA, chemistry not given here)",increase in expression level above the construct without Box II,[1],6.9 fold
"p-5.5hBox II−95CaMV: Box II fused to CaMV 35S promoter, 7 nucleotides from TATA box plus 5.5 turns (DNA TGATCAAAGCTTCCAGTGTGCCCCTGGGTGATATCTCCACTGAC; listed as DNA, chemistry not given here)",stimulation of gene expression versus the construct without Box II,[1],much less or no stimulation of gene expression
"p-1.5hBox II−53CaMV: Box II fused to CaMV 35S promoter, 7 nucleotides from TATA box plus 1.5 turns (DNA TGATCAAAGCTTCCAGTGTGCCCCTGGATCCTTCGCAAGACCCT; listed as DNA, chemistry not given here)",stimulation of gene expression versus the construct without Box II,[1],much less or no stimulation of gene expression
B1,binding in gel mobility shift assay,[2],bind to the Box IIm1 element
same,activation function (relative GUS activity),[3],greater than that of full-length RF2a
same,phenotype of transgenic tobacco plants,[4],did not exhibit abnormal phenotypes
B2,binding in gel mobility shift assay,[2],bind to the Box IIm1 element
same,activation function (relative GUS activity),[3],greater than that of full-length RF2a
same,phenotype of transgenic tobacco plants,[4],did not exhibit abnormal phenotypes
